Data from patent US20220348651A1 (Novartis, published 2022).
Substitutions are numbered along the chain they refer to.

T1: human ENTPD2 expressed on cells (human, UniProt Q9Y5L3 1-495)
T1 sequence: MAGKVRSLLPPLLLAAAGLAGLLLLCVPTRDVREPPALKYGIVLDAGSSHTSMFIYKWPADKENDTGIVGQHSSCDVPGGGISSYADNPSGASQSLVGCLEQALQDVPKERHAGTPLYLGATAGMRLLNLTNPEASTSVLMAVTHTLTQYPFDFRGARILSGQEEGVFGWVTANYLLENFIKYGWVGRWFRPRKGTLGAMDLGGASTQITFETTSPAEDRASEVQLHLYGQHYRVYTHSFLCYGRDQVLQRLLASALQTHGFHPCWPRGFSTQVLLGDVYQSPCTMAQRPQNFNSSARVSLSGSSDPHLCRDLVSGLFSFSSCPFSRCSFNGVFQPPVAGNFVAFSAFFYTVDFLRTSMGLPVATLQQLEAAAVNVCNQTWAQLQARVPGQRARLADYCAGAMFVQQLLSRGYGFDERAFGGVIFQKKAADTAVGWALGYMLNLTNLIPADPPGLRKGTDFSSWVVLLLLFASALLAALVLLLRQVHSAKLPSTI

T2: cyno ENTPD2 expressed on NIH/3T3 cells (cynomolgus macaque, UniProt Q9Y5L3 1-495 (human entry))
T2 chain: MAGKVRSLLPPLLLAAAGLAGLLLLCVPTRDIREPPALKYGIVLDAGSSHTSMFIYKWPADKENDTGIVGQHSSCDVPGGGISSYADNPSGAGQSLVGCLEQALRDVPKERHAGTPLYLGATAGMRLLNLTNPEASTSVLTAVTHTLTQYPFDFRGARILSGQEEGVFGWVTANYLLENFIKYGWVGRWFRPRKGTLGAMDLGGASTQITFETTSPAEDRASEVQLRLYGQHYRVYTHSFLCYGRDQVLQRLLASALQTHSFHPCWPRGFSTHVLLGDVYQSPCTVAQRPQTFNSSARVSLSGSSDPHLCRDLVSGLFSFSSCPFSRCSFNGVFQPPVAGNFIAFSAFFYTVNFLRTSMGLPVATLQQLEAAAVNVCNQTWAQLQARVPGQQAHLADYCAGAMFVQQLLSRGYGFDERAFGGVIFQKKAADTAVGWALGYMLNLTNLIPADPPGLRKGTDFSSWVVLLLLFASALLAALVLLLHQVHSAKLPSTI

T3: Human ENTPD1 (NP_001767) expressed on NIH/3T3 cells (human, UniProt P49961 1-510)
T3 construct: also called NIH/3T3-ENTPD1; CD39
T3 sequence: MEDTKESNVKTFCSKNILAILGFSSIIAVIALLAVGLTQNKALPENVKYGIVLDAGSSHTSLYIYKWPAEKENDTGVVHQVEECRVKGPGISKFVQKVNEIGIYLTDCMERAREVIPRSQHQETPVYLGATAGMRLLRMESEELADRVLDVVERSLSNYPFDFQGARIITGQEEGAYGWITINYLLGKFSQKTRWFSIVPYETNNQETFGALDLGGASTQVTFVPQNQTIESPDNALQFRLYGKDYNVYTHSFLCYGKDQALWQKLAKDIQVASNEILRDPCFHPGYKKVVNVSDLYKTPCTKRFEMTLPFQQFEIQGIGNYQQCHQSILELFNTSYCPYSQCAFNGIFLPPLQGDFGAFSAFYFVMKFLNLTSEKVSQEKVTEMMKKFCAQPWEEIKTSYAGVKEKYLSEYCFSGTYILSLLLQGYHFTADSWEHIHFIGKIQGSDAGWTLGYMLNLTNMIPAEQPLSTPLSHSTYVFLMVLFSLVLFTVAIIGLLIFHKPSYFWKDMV

T4: recombinant cyno ENTPD2 extracellular domain (residues 29-462) with C-terminal Avi-His6 tag (cynomolgus macaque, UniProt Q9Y5L3 29-462 (human entry))
T4 construct: also called cynomologus (cyno) ENTPD2 ECD
T4 chain (part 1 of 2): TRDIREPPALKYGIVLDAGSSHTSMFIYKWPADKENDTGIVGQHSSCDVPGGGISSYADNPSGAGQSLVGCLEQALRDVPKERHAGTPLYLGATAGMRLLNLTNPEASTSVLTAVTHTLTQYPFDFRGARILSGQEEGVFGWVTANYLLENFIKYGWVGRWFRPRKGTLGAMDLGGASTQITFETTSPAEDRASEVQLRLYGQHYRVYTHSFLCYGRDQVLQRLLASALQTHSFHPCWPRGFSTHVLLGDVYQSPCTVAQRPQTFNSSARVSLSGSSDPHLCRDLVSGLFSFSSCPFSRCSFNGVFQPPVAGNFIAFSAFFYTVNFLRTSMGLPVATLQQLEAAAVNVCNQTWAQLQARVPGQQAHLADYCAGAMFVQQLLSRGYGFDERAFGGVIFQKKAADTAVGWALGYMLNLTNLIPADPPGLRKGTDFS
T4 chain (part 2 of 2): HHHHHH

B1: ANTI-HUMAN ENTPD2 MAB6 (antibody, human IgG1, kappa, V domains shown)
VH: QVQLQESGPGLVKPSQTLSLTCTVSGYSITSGYYWNWIRQHPGKGLEWMGYISYDADNNYNPSLKNRITISRDTSKNQFSLKLSSVTAADTAVYYCAGGYYRYGLGSYSGSYYYVMDYWGQGTTVTVSS
VL: DTQMTQSPSSLSVSVGDRATITCKASQSVDYEGHSYMNWYQQKPGKAPKLLIYAASNLESGVPSRFSGSGSGTDFTLTISSVQPEDFATYYCQQSNEDPPTFGGGTKLEIKR
notes: humanized and optimized from mAb16; human IgG1, kappa; also called Anti-ENTPD2 mAb6
B2: ANTI-HUMAN ENTPD2 MAB9 (antibody, human IgG1, lambda, V domains shown)
VH: QVQLVQSGAEVKKPGSSVKVSCKASGGTFDSYAVSWVRQAPGQGLEWMGRIVPWLGHTQYAQKFQGRVTITADESTSTAYMELSSLRSEDTAVYYCARESPGYRYSFDVWDQGTLVTVSS
VL: SYELTQPLSVSVALGQTARITCSGDAIGEKYVYWYQQKPGQAPVLVIYDDNNRPSGIPERFSGSNSGNTATLTISRAQAGDEADYYCASYDLQQARWVFGGGTKLTVLG
notes: also called Anti-ENTPD2 mAb9
B3: ANTI-HUMAN ENTPD2 MAB10 (antibody, human IgG1, lambda, V domains shown)
VH: B2 VH with H57F, Q59R
VL: B2 VL
notes: also called Anti-ENTPD2 mAb10

Each binder was assayed against T1, human ENTPD2 expressed on cells (assay: cell-based or functional assay).

% inhibition, Human ENTPD2 NIH/3T3 Assay	% inhibition, RKO Assay	IC50, Human ENTPD2 NIH/3T3 Assay	IC50, RKO Assay	Binder
95%	90%	0.3 nM	0.2 nM	B1
92%	70%	0.3 nM	0.1 nM	B2
88%	77%	0.4 nM	0.2 nM	B3

Target: T2, cyno ENTPD2 expressed on NIH/3T3 cells
Experiment: cell-based or functional assay

% inhibition, Cyno ENTPD2 NIH/3T3 Assay	IC50, Cyno ENTPD2 NIH/3T3 Assay	Binder
73%	3.3 nM	B1
71%	0.3 nM	B2
86%	0.5 nM	B3

The binders below were run against T3, Human ENTPD1 (NP_001767) expressed on … (assay: flow cytometry, NIH/3T3-ENTPD1 cells).

binding result	Binder
no binding (tested: 50 nM)	B1
no binding (tested: 50 nM)	B2
no binding (tested: 50 nM)	B3

Target: T4, recombinant cyno ENTPD2 extracellular …
Experiment: SPR Biacore, mAb captured, ECD analyte, 25C
Procedure: Biacore Screening: Affinity was measured by determining the kinetic rate constants using surface plasmon resonance (SPR) on a Biacore T200 or T100 with the T200 sensitivity upgrade instrument (Biacore, GE Healthcare). Antibodies were captured on CM5 sensor chips (Biacore, GE Healthcare) prepared with a mouse anti-human IgG Fc antibody (ThermoFisher catalogue #05-4200) amine coupled to the surface. […] ENTPD2 analytes were allowed to associate for 180 s and dissociate for up to 1800 s depending on the off-rate of the antibody at a flow rate of 30 μL/min. The running buffer was PBS pH 7.2 (prepared from a Corning 10X stock, cat#46-013-CM)+0.05% Tween 20. […] The raw data were analyzed using Biacore T200 Evaluation Software version 1.0 and fit to a 1:1 binding model, with all parameters set to fit globally except for RI, which was set to fit locally.

Kd	koff	kon	Binder
35.6 nM	0.01 s⁻¹	290000 M⁻¹ s⁻¹	B1
20.9 nM	0.021 s⁻¹	990000 M⁻¹ s⁻¹	B2
15.2 nM	0.018 s⁻¹	1.2e+06 M⁻¹ s⁻¹	B3

Target: T2, cyno ENTPD2 expressed on NIH/3T3 cells
Experiment: flow cytometry, NIH3T3 cyno ENTPD2 cells

EC50	Binder
7 nM	B1
1.3 nM	B2
1.7 nM	B3

Each binder was assayed against T1, human ENTPD2 expressed on cells (assay: flow cytometry, RKO cells (endogenous ENTPD2)).
Procedure: FACS screening: Specific binding of candidate antibodies to endogenously expressed ENTPD2 was assessed by flow cytometry. […] Geometric mean fluorescence intensity was calculated on live single cells using FlowJo software.

EC50	Binder
0.4 nM	B1
0.5 nM	B2
0.6 nM	B3
